From publication PMC10229537, “A cryo-EM structure of KTF1-bound polymerase V transcription elongation complex” (Nature Communications, 2023) come the findings set out here.

The chains are these.
T1: NRP(D/E)2 (Arabidopsis thaliana (endogenous in T87 …, UniProt Q9LK40 1-1172))
T1 construct: NRP(D/E)2, second largest subunit shared by Pol IV and Pol V, Arabidopsis thaliana; also called NRP(D/E)2 subunit; source: endogenous, A. thaliana T87 cells, co-purified with 3xFLAG-10xHis-NRPE1
T1 sequence (looked up): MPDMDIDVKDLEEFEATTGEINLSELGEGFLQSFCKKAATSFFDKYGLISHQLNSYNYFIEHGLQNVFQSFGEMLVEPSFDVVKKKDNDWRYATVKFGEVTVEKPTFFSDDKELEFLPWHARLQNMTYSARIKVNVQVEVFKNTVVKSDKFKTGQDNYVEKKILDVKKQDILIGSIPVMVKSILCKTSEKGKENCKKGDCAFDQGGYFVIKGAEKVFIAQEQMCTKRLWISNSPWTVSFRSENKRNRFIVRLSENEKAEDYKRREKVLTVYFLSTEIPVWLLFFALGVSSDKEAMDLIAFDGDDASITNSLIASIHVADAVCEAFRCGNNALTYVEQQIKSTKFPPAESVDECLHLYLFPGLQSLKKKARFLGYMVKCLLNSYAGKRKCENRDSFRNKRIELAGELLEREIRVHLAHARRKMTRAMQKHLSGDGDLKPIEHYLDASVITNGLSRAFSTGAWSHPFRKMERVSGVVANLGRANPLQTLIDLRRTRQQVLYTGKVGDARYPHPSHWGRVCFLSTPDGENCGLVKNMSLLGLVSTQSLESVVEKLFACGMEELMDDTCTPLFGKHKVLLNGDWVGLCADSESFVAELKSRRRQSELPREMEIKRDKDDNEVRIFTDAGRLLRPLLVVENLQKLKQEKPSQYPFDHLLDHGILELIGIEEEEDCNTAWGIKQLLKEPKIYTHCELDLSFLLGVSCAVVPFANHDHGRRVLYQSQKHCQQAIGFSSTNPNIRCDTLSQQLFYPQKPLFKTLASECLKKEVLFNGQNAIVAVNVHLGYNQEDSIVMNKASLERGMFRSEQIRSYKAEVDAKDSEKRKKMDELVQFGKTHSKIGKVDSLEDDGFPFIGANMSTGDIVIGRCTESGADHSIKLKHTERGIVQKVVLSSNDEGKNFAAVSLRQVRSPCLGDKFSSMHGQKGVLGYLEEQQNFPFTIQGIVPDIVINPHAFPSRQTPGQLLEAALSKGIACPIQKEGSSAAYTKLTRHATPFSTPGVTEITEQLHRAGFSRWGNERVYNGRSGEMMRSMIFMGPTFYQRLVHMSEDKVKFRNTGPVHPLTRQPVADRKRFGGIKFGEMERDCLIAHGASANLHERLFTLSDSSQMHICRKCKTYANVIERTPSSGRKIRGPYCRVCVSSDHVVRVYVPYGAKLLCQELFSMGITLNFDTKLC

B1: KOW domain-containing transcription factor 1 (KTF1), residues 1-712, the conserved N-terminal domain (domain or fragment, Arabidopsis thaliana, UniProt F4JW79 1-712, looked up)
chain: MDRKGKGKQVAGSDSYSGGQKRKNSVEFRDEGLRIKKRKNPEVLQFFEESAEVGYYGGSSDEDDDGLGFLNDMEDEPEVEESSKAGKGEKGKSSFVFPKEEDLNEEEFDRIMEERYKPGSGFLRYADDDIKDAIEMDALAPTSKDPPIWKVKCAIGRERRSVFCLMHKFVELRKIGTKLEIISVFSVDHVKGFIFIEADKEHDVLEACKSLVGIYATRMVLLPKAETPNLLTVQKKTKKVSEGTWARVKNGKYKGDLAQIVAVSDTRNKALIKLIPRIDIQALTQKYGGGVTVQKGQTPAPRLISSSELEEFRPLIQVRRDRDTGITFEHLDSLMLKDGYLYKKVSLDSISSWGVIPTKDELLKFTPVDRKETGDVEWISEIYGEERKKKILPTCREGGKGEGSGGGKGEGSGGGKGEGSRGGKGEGSSDFKSESSYELYNLVCFSRKDFGLIVGVDDKGDGYKVLKEGIDGPVVVTVGKKEMQNGPFDSKFTALDLNKKQISVNDVVKISKGPSEGKQGVVRQVYRGIIFLYDESEEENGGYFCCKSQSCEKVKLFTEESNEKTGGFDGTAFEDFVSSPKSPLSPEKEWQPRERYNSSNQGDIGSTYSIGQKLRIRVGPLKGYLCRVIALRYSDVTVKLDSQHKIFTVKSEHLAEVRDRNTVLSTSGDAGTGSFQPFGMLGTESSTGDWAIGAGTSSEGGNWNIGGPSTDS
notes: KTF1 (SPT5L), Arabidopsis thaliana, At5g04290, residues 1-712 (NGN, KOW1, KOW4, KOW5; without the C-terminal GW/WG repeats); The modified pETDuet1 vector carries a 6xHis-tagged SUMOstar that was cleaved on the column; Added to Pol V as the heterodimer with SPT4; Only the KOW5 domain is seen in the map; also called SPT5L; truncated KTF1 (1-712)
B2: NRP(B/D/E)3 (natural protein, UniProt Q39211 1-319, looked up)
chain: MDGATYQRFPKIKIRELKDDYAKFELRETDVSMANALRRVMISEVPTVAIDLVEIEVNSSVLNDEFIAHRLGLIPLTSERAMSMRFSRDCDACDGDGQCEFCSVEFRLSSKCVTDQTLDVTSRDLYSADPTVTPVDFTIDSSVSDSSEHKGIIIVKLRRGQELKLRAIARKGIGKDHAKWSPAATVTFMYEPDIIINEDMMDTLSDEEKIDLIESSPTKVFGMDPVTRQVVVVDPEAYTYDEEVIKKAEAMGKPGLIEISPKDDSFIFTVESTGAVKASQLVLNAIDLLKQKLDAVRLSDDTVEADDQFGELGAHMRGG
notes: NRP(B/D/E)3, subunit 3 shared by Pol II, IV and V, Arabidopsis thaliana; also called NRPE(B/D/E)3; source: endogenous, A. thaliana T87 cells, co-purified with 3xFLAG-10xHis-NRPE1
B3: NRP(A/B/C/D/E)12 (natural protein)
chain: not shown
notes: NRP(A/B/C/D/E)12, subunit 12 shared by Pol I-V, Arabidopsis thaliana; source: endogenous, A. thaliana T87 cells, co-purified with 3xFLAG-10xHis-NRPE1

One experiment has as its target T1, NRP(D/E)2. The experiment in a line: cryo-EM structure; Pol V, nucleic-acid scaffold and KTF1/SPT4 heterodimer mixed 1:1.2:3 in 20 mM HEPES pH 7.5, 100 mM NaCl, 5 mM MgCl2, 1 mM DTT; complex taken from Superose 6 Increase; maps at 3.2 Å and 4.3 Å, local maps at 3.0 Å and 3.7 Å. As to conditions: both partners purified.
Experiment [1] concerns the target B1. Described as above. As to conditions: both partners purified.

Take B1: the binding result with NRP(D/E)2 is given as “binds”.
Turning to B2, the binding result in experiment [1] was “binds”.
With B3, the binding result in experiment [1] is “binds”.
